According to patent US20250313634A1 (WUXI BIOLOGICS SHANGHAI, published 2025):

What was measured:
[1] = biological target: T1, full-length human PD-L1 expressed on CHO cells (human, UniProt Q9NZQ7 19-290); assay: FACS competition on CHO cells expressing human PD-L1; competitor mouse Fc-tagged human PD-1
T1 construct: whole, on cells; also called CHO-K1 cells expressing human PD-L1; PD-L1 transfected CHO cells
Method: (§1) 3.1 Competition assay by FACS: to examine whether the fully human antibodies can block the binding of PD-L1 to PD-1, the CHO-K1 cells expressing human PD-L1 were incubated with various concentrations of the fully human antibodies at 4° C. for 1 hour. The unbound antibodies were washed away, and then the mouse Fc-tagged human PD-1 was added to the cells. The binding of human PD-1 to PD-L1 expressing cell was detected by using FITC-conjugated goat anti-mouse IgG, followed by the analysis using a BD Biosciences FACSCanto II and FlowJo Version software.
(§2) Then the mouse Fc-tagged human PD-1 was added to the cells. The binding of human PD-1 to PD-L1 expressing cell was detected by using FITC-conjugated goat anti-mouse IgG, followed by the FACS analysis.

[2] = biological target: T2, murine PD-L1 (mouse, UniProt Q9EP73 19-238, limits assumed); assay: ELISA, murine PD-L1 coated on the plate, goat anti-human IgG Fc-HRP; antibody concentration not shown
T2 construct: also called mouse PD-L1 (coated on ELISA plates)
Method: 3.7 Cross-species binding assay: the cross-reactivity of the Ab to cynomolgus and murine PD-L1 was measured by ELISA. Human, cyno and mouse PD-L1 were coated on ELISA plates, respectively. After blocking, fully human antibodies were added into the plate and incubated at room temperature for at least 2 hours. The binding of the antibodies to the coated antigens was detected by using goat anti-human IgG Fc-HRP. The color reaction was developed using TMB substrate and stopped by 2M HCl. The ELISA plates were analyzed at 450 nm using a Molecular Device M5e microplate reader.

[3] = biological target: T1, full-length human PD-L1 expressed on …; assay: FACS on CHO cells transfected with full-length human PD-L1
[4] = biological target: T3, PD-L2 expressed on transfected CHO cells (Homo sapiens (Human), UniProt Q9BQ51 20-273); assay: FACS on PD-L2 transfected CHO-K1 cells, single bar, antibody concentration not shown
T3 construct: also called PD-L2 of PD-1 ligand family
T3 sequence: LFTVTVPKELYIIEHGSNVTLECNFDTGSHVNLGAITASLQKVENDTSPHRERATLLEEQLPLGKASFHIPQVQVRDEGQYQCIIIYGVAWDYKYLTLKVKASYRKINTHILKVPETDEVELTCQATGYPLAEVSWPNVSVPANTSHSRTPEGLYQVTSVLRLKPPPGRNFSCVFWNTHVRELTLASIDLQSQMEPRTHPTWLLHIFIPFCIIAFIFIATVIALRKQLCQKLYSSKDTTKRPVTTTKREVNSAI
Method: 3.8 Cross-family binding assay by FACS: to examine the cross-family binding activity of the fully human antibodies, cells lines that express PD-L2 were stained with the fully human antibodies, followed by 2nd antibody staining with FITC conjugated goat anti-human IgG Fc. PD-L1 expressing cells were used as positive control. Corresponding parental cell lines were used as negative controls. The stained cells were analyzed by using a BD Biosciences FACSCanto II and FlowJo Version software.
CHO cells transfected with PD-L1 or PD-L2 were stained with fully human PD-L1 antibodies and analysis by FACS.

[5] = biological target: T4, recombinant human PD-L1 (human, UniProt Q9NZQ7 19-238, limits assumed); assay: surface plasmon resonance per legend paragraph 39 and paragraph 188; column Best fit-KD, mol/L from the legend
T4 construct: Used for the SPR analyte (3.2) and for the plate-coated human PD-L1 of the cross-species ELISA (3.7); also called human PD-L1 (SPR analyte); Human PD-L1 coated on ELISA plates
Excerpt: 3.2 Affinity test by surface plasmon resonance (SPR): Antibodies were characterized for affinity and binding kinetics to PD-L1 by SPR assay using ProteOn XPR36 (Bio-Rad). Protein A protein (Sigma) was immobilized to a GLM sensor chip (Bio-Rad) through amine coupling. Purified antibodies were flowed over the sensor chip and captured by the Protein A. The chip was rotated […] and washed with running buffer (1×PBS/0.01% Tween20, Bio-Rad) until the baseline is stable. Five concentrations of human PD-L1 and running buffer were flowed against the antibody flow cell at a flow rate 100 μL/min for an association phase of 240s, followed by 600s dissociation. The chip was regenerated with pH 1.7 H₃PO₄ after each run. The association and dissociation curve was fit to a 1:1 Langmiur binding model using ProteOn software.

[6] = biological target: T5, mouse PD-L1_ECD.His protein (mouse, UniProt Q9EP73 19-239); assay: ELISA, 2 ug/ml 1.14.4 coated on the plate, mPD-L1-His protein titrated, HRP-anti-His detection
T5 construct: extracellular domain; Bought (Sino Biological, China); also called mPD-L1-His protein

[7] = biological target: T1, full-length human PD-L1 expressed on …; assay: FACS competition: blocking of mouse Fc-tagged human PD-1 binding to CHO cells expressing human PD-L1
Method: as §1, §2

T1 sequence (Q9NZQ7 19-290): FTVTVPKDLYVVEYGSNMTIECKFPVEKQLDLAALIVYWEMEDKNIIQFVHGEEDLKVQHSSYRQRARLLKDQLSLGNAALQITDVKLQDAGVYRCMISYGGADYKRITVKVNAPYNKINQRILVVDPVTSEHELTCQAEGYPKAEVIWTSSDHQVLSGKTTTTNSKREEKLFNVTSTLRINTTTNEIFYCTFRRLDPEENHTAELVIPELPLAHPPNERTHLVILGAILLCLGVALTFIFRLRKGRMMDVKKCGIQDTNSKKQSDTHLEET
T4 sequence (Q9NZQ7 19-238 limits assumed): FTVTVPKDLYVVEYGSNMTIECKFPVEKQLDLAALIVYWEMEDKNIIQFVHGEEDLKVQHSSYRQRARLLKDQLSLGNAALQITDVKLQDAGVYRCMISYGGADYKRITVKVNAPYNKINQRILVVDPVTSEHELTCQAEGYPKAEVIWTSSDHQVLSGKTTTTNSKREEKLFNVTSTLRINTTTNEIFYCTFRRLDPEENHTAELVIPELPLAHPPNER
T5 sequence (Q9EP73 19-239): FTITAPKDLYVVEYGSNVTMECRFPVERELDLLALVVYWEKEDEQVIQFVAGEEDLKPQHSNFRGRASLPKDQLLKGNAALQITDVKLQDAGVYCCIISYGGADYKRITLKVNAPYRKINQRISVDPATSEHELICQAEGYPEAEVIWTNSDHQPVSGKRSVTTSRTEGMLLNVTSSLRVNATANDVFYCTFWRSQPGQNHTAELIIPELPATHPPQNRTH
T2 sequence (Q9EP73 19-238 limits assumed): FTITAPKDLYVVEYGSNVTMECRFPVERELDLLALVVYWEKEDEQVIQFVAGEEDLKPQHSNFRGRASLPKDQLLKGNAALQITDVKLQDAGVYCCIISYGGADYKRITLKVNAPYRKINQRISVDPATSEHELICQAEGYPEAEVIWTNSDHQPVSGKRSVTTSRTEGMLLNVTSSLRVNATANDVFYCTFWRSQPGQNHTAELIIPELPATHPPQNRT

B1: 1.14.4 (antibody, V domains shown)
VH: EVQLLESGGGLVQPGGSLRLSCAASGFTFSSYAMSWVRQAPGKGLEWVSGISGSGGFTYYADSVKGRFTISRDNSKNTLYLQMNSLRAEDTAVYYCAKPPRGYNYGPFDYWGQGTLVTVSS
VL: SYVLTQPPSVSVAPGQTARITCGGNNIGSKSVHWYQQKPGQAPVLVVYDDSDRPSGIPERFSGSNSGNTATLTISRVEAGDEADYYCQVWDSSSDHVVFGGGTKLTVL
notes: Fully human monoclonal antibody with a human constant region of IgG4 isotype
Question: What does the source list for B1?
Answer: IC50 [1]: ~10 nM; binding result [2]: no binding; EC50 (read off the curve) [3]: ~1 nM; binding result [4]: no binding; Kd [5]: 0.392 nM; binding result [6]: no binding; IC50 (read off the curve) [7]: ~2 nM
